Test results as given in patent US6936586B1, “Synthetic IL-10 analogues” (Steeno Research Group A/S, priority 1996, dated 2005).
Peptide text beside a SMILES is read from it.

Columns and labels:
human monocytes [1] = assay: Viability of cultured cells with IT9302; assay type: cell-based; settings: any concentration of IT9302 between 0.1 and 1000 ng/ml; viability always exceeded 80% after 1 day in culture
PBMCs = assay: T cell proliferation, PHA stimulated PBMC, 3H-thymidine incorporation; assay type: cell-based, human; settings: 72 hours, 3H-thymidine last 18 hours
Description: Proliferation assay. PBMCs (2×10^5) were cultivated in 200 μl of RPMI medium with 10% FCS for 72 hours with PHA 0.5 μl/ml and rhIL-10 (1, 10, 100 ng/ml) or IT9302 (0.1, 1, 10 ng/ml) in triplets. The last 18 hours ^3H-thymidine was added with 0.5 μCi/well (Amersham, Denmark). The cells were harvested on a filter (Glass Microfibre Filters, Whatman, Cat. No. 1822 849) and scintillation fluid (Ultima, Gold MV, Packard) was added. The scintillation counting was made on Tri-Carb model 1600 TR, Packard.
PBMC's were stimulated with PHA as described above and rhIL-10 and IT9302 were added for 72 hours, and the ^3H-thymidine incorporation was measured for the last 18 hours.

human monocytes [2] = assay: Determination of apoptosis in monocytes (DNA typing, propidium iodide flow cytometry); assay type: cell-based; settings: with IFN-γ stimulation; non-stimulated 6.6%, IFN-γ alone 4.1%
Description: Alternatively cells were fixed in 10% DMSO, 40% RPMI 1640 and 50% sterile FCS, and stored at −80° C. and used for DNA typing.
DNA typing of the stimulated monocytes. The fixed cells were incubated in 70 ethanol for 60 minutes and washed twice in Hank's solution. 1×10^6 cells were resuspended in 250 μl of RNase 1 μg/ml in 1.12% sodium citrate, pH 8.4 (Ribonuclease A, Pharmacia No. 17-0442-01) and incubated at 37° C. for 3 minutes. Thereafter, 250 μl of propidiumiodide (50 μg/ml in Hank's solution) was added, and cells were incubated in the dark for 30 minutes. After this the cells were washed twice in Hank's solution (Jensen et al., (110)). The DNA content was measured by flow cytometry on a Coulter-Epics XL-MCL at a wavelength of 550 nm.
The IFN-γ stimulated monocytes from above were incubated with propidium iodide and the DNA content was measured by flow cytometry. The fraction of cells expressing DNA in G1 or G2 phase of cell proliferation was measured and also the fraction expressing apoptosis.

human monocytes [3] = assay: Class II MHC (HLA-DR) antigen expression on IFN-γ stimulated human monocytes, flow cytometry; assay type: cell-based; settings: 10 ng/ml rhIL-10 before IFN-γ 10 ng/ml, 40 hours; unstimulated 36.8%, IFN-γ alone 58.4%
Description: HLA-DR expression on human monocytes. The monocytes were isolated from fresh, heparinized blood by adherence to plastic at 37° C. in RPMI 1640 containing 10% FCS. After incubation, the supernatant was removed, Hank's solution (4° C. with 1% FCS) was added, and the cells were detached by cooling at […] for 15 minutes and gentle banging to the table. Monocytes were stimulated (2×10^6 cells/ml) in RPMI 1640 added 2% FCS, with IFN-γ (10 ng/ml), or rhIL-10 (100, 10, 1 ng/ml) added before IFN-γ, or IT9302 (10, 1, 0.1 ng/ml) added before IFN-γ for 40 hours. The cells were detached from the wells by cooling as before. Fresh, non-fixed cells were used for surface typing by antihuman antibody for HLA-DR. The cells were resuspended in Hank's solution with 1% FCS, 1×10^6 cells/ml and FITC conjugated mouse-anti-human HLA DR, DP, […] antibodies were added (F 0817, DAKO Denmark) for 45 minutes. The cells were washed three times in Hank's solution and a FACS analysis was performed on a Coulter-Epics XL-MCL flow cytometer at a wavelength of 488 nm. Non-specific binding was determined with a non-relevant Fitch conjugated antibody (mouse anti goat DAKO F 479).
The monocytes were purified as described above and stimulated for 40 hours by IFN-γ (10 ng/ml) and/or rhIL-10 and/or IT9302 added 30 minutes before IFN-γ. […]

[4] = system: normal human CD4+ T cells; assay: IL-4 production by cultured CD4+ T lymphocytes, ECL-Western blotting; assay type: cell-based; settings: IT9302 10 ng/ml or IL-10 100 ng/ml, 3 days, cytosolic fractions
Description: CD4+ T lymphocytes were purified from heparinized normal human blood. Following Lymphoprep™ (Nycomed Pharma, Oslo, Norway) gradient centrifugation, the mononuclear cells were further sorted at 4° C. using Dynabeads (Dynal AS, Norway) coated with monoclonal anti-CD4 antibodies. The beads were detached by adding polyclonal anti-mouse antibody (Dynal AS, Norway). The purity of the positively selected cells were higher than 99% as judged by FACS analysis. […]
Cells or freeze-dried cell culture supernatants were used for IL-4 protein content determination. […] The blots were then incubated with a polyclonal goat anti-human IL-4 antibody (R&D Systems, UK) followed by a horseradish peroxidase-labelled secondary antibody (Cat. no. RPN 2106 ECL, Amersham, UK), and the immunostaining was detected by exposing a film (Kodak X-OMAT-S, USA) for 90 seconds.
Thus, CD4+ T cells, purified as described in “Methods for T cell chemotaxis”, and cultured as described in the section “Determination of IL-4 production by CD4+ T lymphocytes”, were stimulated for 3 days with IT9302 (10 ng/ml) or IL-10 (100 ng/ml). Cytosolic fractions were collected and analyzed for their IL-4 content using Western blotting (FIG. 9) and a goat anti-human IL-4 polyclonal antibody.

CC[C@H](C)[C@H](NC(=O)[C@H](CCCCN)NC(=O)[C@H](CCSC)NC(=O)[C@@H](NC(=O)[C@H](CCSC)NC(=O)[C@H](Cc1ccc(O)cc1)NC(=O)[C@H](C)N)[C@@H](C)O)C(=O)N[C@@H](CCCNC(=N)N)C(=O)N[C@@H](CC(N)=O)C(=O)O [IT9302, NH2-Ala-Tyr-Met-Thr-Met-Lys-Ile-Arg-Asn-COOH] (H-AYMTMKIRN-OH)
effect on viability of cells (human monocytes [1]): did not in this or in the following examples affect viability

B1: rhIL-10: recombinant human interleukin 10 obtained from Pepro Tech Inc. (protein)
chain: SPGQGTQSENSCTHFPGNLPNMLRDLRDAFSRVKTFFQMKDQLDNLLLKESLLEDFKGYLGCQALSEMIQFYLEEVMPQAENQDPDIKAHVNSLGENLKTLRLRLRRCHRFLPCENKSKAVEQVKNAFNKLQEKGIYKAMSEFDIFINYIEAYMTMKIRN
optimum concentration for downregulation of cell proliferation (PBMCs): 100 ng/mL
fraction of monocytes expressing apoptosis (human monocytes [2]): 10.3%
MHC II antigen expression in the cell population (human monocytes [3]): 25.2%
production of IL-4 by cultured normal human CD4+ T cells [4]: induce the production of IL-4
